T1: OsMYB80 (rice, UniProt Q7XQN1 1-372)
T1 sequence: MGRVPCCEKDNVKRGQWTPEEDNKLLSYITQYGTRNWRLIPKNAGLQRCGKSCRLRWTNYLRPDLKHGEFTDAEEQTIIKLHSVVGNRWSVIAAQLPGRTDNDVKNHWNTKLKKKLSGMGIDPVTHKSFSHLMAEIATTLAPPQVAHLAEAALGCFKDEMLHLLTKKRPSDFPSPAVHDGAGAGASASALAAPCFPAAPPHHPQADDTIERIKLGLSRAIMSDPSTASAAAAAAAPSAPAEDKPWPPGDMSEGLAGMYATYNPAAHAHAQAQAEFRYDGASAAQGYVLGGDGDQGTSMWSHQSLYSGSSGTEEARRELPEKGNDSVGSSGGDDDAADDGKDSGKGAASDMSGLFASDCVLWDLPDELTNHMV

B1: OsMYB80 promoter OsMYB80-1 probe (dsDNA)
DNA 1: TGAACCTAAGGCTGTAAATTTGTTCGGACAAAGGATCATT
DNA 2: AATGATCCTTTGTCCGAACAAATTTACAGCCTTAGGTTCA
B2: LOC_Os04g51990 promoter probe (dsDNA)
DNA 1: CTGCAGGAAATGGAAAACCATCTTATAGAAG
DNA 2: CTTCTATAAGATGGTTTTCCATTTCCTGCAG
B3: LOC_Os07g40830 promoter probe (dsDNA)
DNA 1: CACGCATTCAGGAAACCAGAAGGATC
DNA 2: GATCCTTCTGGTTTCCTGAATGCGTG
B4: LOC_Os06g11135 promoter probe (dsDNA)
DNA 1: TCTACCCTCACCAACCACGCTCCCA
DNA 2: TGGGAGCGTGGTTGGTGAGGGTAGA
B5: LOC_Os01g27170 promoter probe (dsDNA)
DNA 1: CCATCAAAATATATTGACTGTTGGATTTAATG
DNA 2: CATTAAATCCAACAGTCAATATATTTTGATGG
B6: LOC_Os01g50750 promoter probe (dsDNA)
DNA 1: CACCTAAACAAAACCAAACACAAGC
DNA 2: GCTTGTGTTTGGTTTTGTTTAGGTG
B7: LOC_Os09g36730 promoter probe (dsDNA)
DNA 1: ACCTCACTTTACACCTACCTTGAAGGTT
DNA 2: AACCTTCAAGGTAGGTGTAAAGTGAGGT
B8: LOC_Os01g04080 promoter probe (dsDNA)
DNA 1: CCAAATAAACGAGAAAACGGCAAAGGCATATGTCATTCAC
DNA 2: GTGAATGACATATGCCTTTGCCGTTTTCTCGTTTATTTGG
B9: OsMYB80 promoter OsMYB80-2 probe (dsDNA)
DNA 1: ACTCATAGCCTGCTATGTTCACAAGGTTTTATATTACTGA
DNA 2: TCAGTAATATAAAACCTTGTGAACATAGCAGGCTATGAGT
B10: LOC_Os08g20200 promoter probe (dsDNA)
DNA 1: TAAGCCAGCTACAACTGACCAACTC
DNA 2: GAGTTGGTCAGTTGTAGCTGGCTTA
B11: LOC_Os08g38810 promoter probe (dsDNA)
DNA 1: CCTGGTCAGTCCTGTTGCACGGCTATATG
DNA 2: CATATAGCCGTGCAACAGGACTGACCAGG
B12: LOC_Os03g35920 promoter probe (dsDNA)
DNA 1: GATCTGCATTTGTTAGTTCACCAGCAC
DNA 2: GTGCTGGTGAACTAACAAATGCAGATC

target: T1, OsMYB80; experiment: EMSA

Binding result, binds:
B1
B2
B3
B4
B5
B6
B7
B8
B9
B10
B11
B12

From paper PMC7217667
